According to the supplement of paper PMC11865577:

Tested on: TO-N3 (biotin conjugate)
Experiment: pull-down binding Z-score (relative to library population); higher = stronger binding
Details: RNA library: Library-2
Outline: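 An RNA library (1 μg) carrying a Cy5 or Cy3 end label was heat-folded in phosphate/NaCl/KCl buffer, then incubated for 60 min at 25 °C with streptavidin beads loaded with 100 pmol of biotin-conjugated small molecule. The beads were washed three times, and bound RNA was released in hot SDS and hybridised to a DNA barcode microarray for 20 h at 55.5 °C. Each binding score was derived by subtracting the signal from beads without compound, averaging the barcoded replicate probes after removing the highest and lowest, and expressing the result as a Z-score relative to the library mean and standard deviation.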

First: ACAACAGGAGUCACCUUUUGU [DMSMaPseq_invitro_SARS-CoV-2_Motif_108]
Second: ACAACCCUUAAGGGUGU [SHAPE_invivo_SARS-CoV-2_Motif_115]
The “pull-down binding Z-score” value of the first is higher: -1.15 for the first, -1.19 for the second.

First: ACAAGAGGGUGUGGUUGAUUAUGGUGCUAGAUUUUACUUUUACACCAGUAAAACAACUGUAGCGUCACUUAUCAACACACUUAACGAUCUAAAUGAAACUCUUGU
Second: ACAAGAUGAUAAGAAAAUCAAAGCUUGU
The “pull-down binding Z-score” value of the first is higher: 0.447 for the first, -1.1 for the second.

Going from “ACAAGGCUAUUGAUGGUGGUGUCACUCGUGACAUAGCAUCUACAGAUACUUGU [SHAPE_invitro_SARS-CoV-2_Motif_170]” to “ACAAGUUGCAAUUUACAAGUCUUGAAAUUCCACGUAGGAAUGUGGCAACUUUACAAGCUGAAAAUGUAACAGGACUCUUUAAAGAUUGU”, the “pull-down binding Z-score” value rises from -0.449 to -0.143.

Going from “ACAAUGGCAGACCUCGUCUAUGCUUUAAGGCAUUUUGAUGAAGGUAAUUGU” to “ACACAUUCUGACAAAUUCACAGAUGGUGU [SHAPE_invitro_SARS-CoV-2_Motif_350]”, the “pull-down binding Z-score” value rises from -0.93 to -0.471.

Going from ACACGGUGUUUAAACCGUGU to “ACACUAAUUCUUUCACACGUGGUGU [DMSMaPseq_invitro_SARS-CoV-2_Motif_381]”, the “pull-down binding Z-score” value falls from 0.0341 to -0.398.

Going from ACACUCUACGUGU to ACAGAAUGCUGU, the “pull-down binding Z-score” value rises from -1.78 to -1.14.

First: ACAGACUUCAUUAAGAUGUGGUGCUUGCAUACGUAGACCAUUCUUAUGUUGUAAAUGCUGUUACGACCAUGUCAUAUCAACAUCACAUAAAUUAGUCUUGUCUGU
Second: ACAGAGACUGAUAGUAAGUUCUCUGU [IAV_invivo_NA_6_Motif_16+IAV_invivo_NA_6_Motif_16]
The “pull-down binding Z-score” value of the first is higher: -0.512 for the first, -0.696 for the second.

Compared with ACAGAUCUUUACCAGGAGUUUUCUGU, “ACAGCAGAGUGCUGU [IAV_invivo_M1_M2_7_Motif_17+IAV_invivo_M1_M2_7_Motif_17]” is higher in “pull-down binding Z-score” value: -1.28 for the first, -0.887 for the second.

Compared with “ACAGGAGUCACCUUUUGU [SHAPE_invitro_SARS-CoV-2_Motif_112]”, “ACAGGGACUACUCCCACCCAAGAAUAGCAUAGAUGCCUUCAAACUCAACAUUAAAUUGUUGGGUGUUGGUGGCAAACCUUGUAUCAAAGUAGCCACUGU” is higher in “pull-down binding Z-score” value: -0.78 for the first, -0.503 for the second.

First: ACAGGUUUUAUCGAACCUGU [IAV_invivo_PB1_2_Motif_25+IAV_invivo_PB1_2_Motif_25]
Second: ACAGUAUGUCUUUUGUACUGU
The “pull-down binding Z-score” value of the first is lower: -0.828 for the first, -0.525 for the second.

First: ACAGUCUGUACCGUCUGCGGUAUGUGGAAAGGUUAUGGCUGU
Second: ACAUACUAGGACCUCUUUCUGCUCAAACUGGAAUUGCCGUUUUAGAUAUGU [DMSMaPseq_invitro_SARS-CoV-2_Motif_193]
The “pull-down binding Z-score” value of the first is higher: -0.273 for the first, -0.989 for the second.

Compared with “ACAUAGCAGUGGUGUUACCCGUGAACUCAUGCGUGAGCUUAACGGAGGGGCAUACACUCGCUAUGU”, ACAUCAGCUUGUGUUUUGGCUGCUGAAUGU is lower in “pull-down binding Z-score” value: -0.015 for the first, -0.774 for the second.

Compared with “ACAUCUCUGGCAUUAAUGCUUCAGUUGU [SHAPE_invivo_SARS-CoV-2_Motif_471]”, “ACAUGCCAAUUUAGAUUCUUGCAAAAGAGUCUUGAACGUGGUGUGU” is lower in “pull-down binding Z-score” value: -1.33 for the first, -1.48 for the second.

Going from “ACAUUACACCAUGU [SHAPE_invivo_SARS-CoV-2_Motif_439]” to “ACAUUAGAUAAUCAAGAUCUCAAUGGUAACUGGUAUGAUUUCGGUGAUUUCAUACAAACCACGCCAGGUAGUGGAGUUCCUGUUGUAGAUUCUUAUUAUUCAUUGU”, the “pull-down binding Z-score” value rises from -1.07 to 0.235.

Compared with “ACAUUUUAUCUUACUAAUGAUGU [SHAPE_invivo_SARS-CoV-2_Motif_191]”, “ACCAACCACCACAAACCUCUAUCACCUCAGCUGUUUUGCAGAGUGGUUUUAGAAAAAUGGCAUUCCCAUCUGGU” is higher in “pull-down binding Z-score” value: -0.428 for the first, 0.386 for the second.

Compared with “ACCAAUGUGCUAUGAGGCCCAAUUUCACUAUUAAGGGUUCAUUCCUUAAUGGUUCAUGUGGUAGUGUUGGU [SHAPE_invivo_SARS-CoV-2_Multi_27_ComplexLevel_1]”, “ACCACCAAUUAAAGAUUUUGGUGGU [SHAPE_invitro_SARS-CoV-2_Motif_434]” is higher in “pull-down binding Z-score” value: -0.295 for the first, -0.123 for the second.

Going from “ACCAGGAGUUUUCUGUGGUGUAGAUGCUGUAAAUUUACUUACUAAUAUGUUUACACCACUAAUUCAACCUAUUGGU [SHAPE_invitro_SARS-CoV-2_Motif_181]” to “ACCAGUUAACUGGU [SHAPE_invitro_SARS-CoV-2_Motif_121]”, the “pull-down binding Z-score” value falls from -0.0352 to -1.1.

Compared with ACCAUUCUUCGUAAGGGUGGU, ACCAUUGGUAGAUUUGCCAAUAGGU is lower in “pull-down binding Z-score” value: -0.223 for the first, -0.966 for the second.

Compared with “ACCAUUUAAUGAUGGU [DMSMaPseq_invitro_SARS-CoV-2_Motif_383]”, ACCCUCAAAAAGAGAUGGCAACUAGCACUCUCCAAGGGU is higher in “pull-down binding Z-score” value: -1.21 for the first, 0.0275 for the second.

Compared with “ACCGGUGGAAUUGCUAUCGCAAUGGCUUGUCUUGUAGGCUUGAUGUGGCUCAGCUACUUCAUUGCUUCUUUCAGACUGUUUGCGCGUACGCGUUCCAUGUGGU”, ACCUAAAUAGAGGU is lower in “pull-down binding Z-score” value: 1.07 for the first, -1.22 for the second.

Compared with ACCUCGUCUAUGCUUUAAGGCAUUUUGAUGAAGGU, ACCUGCUCAGUAUGAACUUAAGCAUGGU is lower in “pull-down binding Z-score” value: -0.152 for the first, -0.561 for the second.

Compared with ACCUUGAAGGAAAACAGGGU, “ACCUUUAAUUGAAUUGUGCGUGGAUGAGGCUGGUUCUAAAUCACCCAUUCAGUACAUCGAUAUCGGU [SHAPE_invivo_SARS-CoV-2_Motif_532]” is lower in “pull-down binding Z-score” value: 0.58 for the first, -1.07 for the second.

Going from “ACCUUUAGUACCUUUCUGGAUAACAAUUGCUUAUAUCAUUUGUAUUUCCACAAAGCAUUUCUAUUGGU” to “ACGACGACUACUAGCGUGCCUUUGUAAGCACAAGCUGAUGAGUACGAACUUAUGUACUCAUUCGUUUCGGAAGAGACAGGUACGUUAAUAGUUAAUAGCGU”, the “pull-down binding Z-score” value falls from 0.513 to -0.304.

First: ACGUACUGCCACUAAAGCAUACAAUGUAACACAAGCUUUCGGCAGACGU
Second: ACGUGAGUCUUGUAAAACCUUCUUUUUACGUUUACUCUCGU
The “pull-down binding Z-score” value of the first is higher: 0.464 for the first, 0.206 for the second.

Compared with “ACGUGGCUUUGGAGACUCCGUGGAGGAGGUCUUAUCAGAGGCACGU”, “ACUAAAAAUGU [SHAPE_invitro_SARS-CoV-2_Motif_381]” is lower in “pull-down binding Z-score” value: 0.0366 for the first, -0.167 for the second.

Going from “ACUAAAAUAAAACCUCAUAAUUCACAUGAAGGUAAAACAUUUUAUGUUUUACCUAAUGAUGACACUCUACGUGUUGAGGCUUUUGAGU [DMSMaPseq_invitro_SARS-CoV-2_Multi_18_ComplexLevel_1]” to “AGGUAAAACCAACAGUGGUUGUUAAUGCAGCCAAUGUUUACCU”, the “pull-down binding Z-score” value falls from -1.12 to -1.2.

Going from AGGUAAGUAUGAUACUUACCUG [U1snRNP5ss-2] to “AGGUCAAAUCAAUGAUAUGAUUUUAUCU [SHAPE_invitro_SARS-CoV-2_Motif_388]”, the “pull-down binding Z-score” value falls from -0.856 to -1.31.

First: AGGUCCAGACAUGUUCCUCGGAACUUGUCGGCGUUGUCCU
Second: AGGUUGGACAGCUGGUGCUGCAGCUU [SHAPE_invivo_SARS-CoV-2_Motif_420]
The “pull-down binding Z-score” value of the first is lower: -0.838 for the first, 0.754 for the second.

First: AGGUUGGUAUGCAAAAGUAUUCUACACUCCAGGGACCACCUGGUACUGGUAAGAGUCAUUUUGCUAUUGGCCU
Second: AGUACACCUUUGAAAAAGGUGACU
The “pull-down binding Z-score” value of the first is higher: -0.418 for the first, -1.22 for the second.

First: AGUAUGGCUACAUACU [DMSMaPseq_invitro_SARS-CoV-2_Motif_53]
Second: AGUCAGACAAAUCGCUCCAGGGCAAACUGGAAAGAUUGCUGAUU
The “pull-down binding Z-score” value of the first is lower: -1.06 for the first, 0.0567 for the second.

First: AGUCAUAACAAGAGAAGUGGGUUUUGUCGUGCCUGGUUUGCCUGGCACGAUAUUACGCACAACUAAUGGUGACU [DMSMaPseq_invitro_SARS-CoV-2_Motif_162]
Second: AGUCAUAGUCAGUUAGGUGGUUUACAUCUACUGAUUGGACU
The “pull-down binding Z-score” value of the first is higher: -0.62 for the first, -1.35 for the second.

First: AGUCCCUGUUGCUAUUCAUGCAGAUCAACUUACUCCUACUUGGCGUGUUUAUUCUACAGGUUCUAAUGUUUUUCAAACACGUGCAGGCUGUUUAAUAGGGGCU
Second: AGUCUUGUAGUGCGUUGUUCGUUCUAUGAAGACU
The “pull-down binding Z-score” value of the first is lower: -1.03 for the first, -0.932 for the second.

Going from “AGUGAGUACACUGGUAAUUACCAGUGUGGUCACU [SHAPE_invivo_SARS-CoV-2_Motif_119]” to “AGUGAUGGAACU [DMSMaPseq_invitro_SARS-CoV-2_Motif_229]”, the “pull-down binding Z-score” value falls from -0.332 to -0.658.

Going from “AGUGCCAACAGACAAUUAUAUAACCACUUACCCGGGUCAGGGUUUAAAUGGUUACACU” to “AGUGUAAAAGUGCCUUUUACAUU [DMSMaPseq_invitro_SARS-CoV-2_Motif_79]”, the “pull-down binding Z-score” value falls from -0.462 to -0.863.
